As a reminder, the Kd is the constant that tells how readily two partners part at equilibrium. Higher therefore signals a looser complex. The term koff denotes the rate constant with which the complex falls apart. Lower therefore signals slow dissociation. The kon is a measure of how fast the partners come together. The low end stands for slow association, the high end for fast association.

In experiment [1] the target is T1, 人CD27蛋白 (Cat: 10039-H03H, Sino Biological Inc.) (human, UniProt P26842 21-192).
T1 construct: Bought protein coated on the SPR chip
T1 sequence (looked up): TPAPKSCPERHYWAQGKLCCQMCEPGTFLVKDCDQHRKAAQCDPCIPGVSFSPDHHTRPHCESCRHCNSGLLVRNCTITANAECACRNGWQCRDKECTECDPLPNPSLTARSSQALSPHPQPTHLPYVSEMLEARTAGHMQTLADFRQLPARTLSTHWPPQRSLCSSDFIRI
Nature of the experiment: SPR (Reichert4), human CD27 protein on chip, antibody as analyte, curve 1.25e-8.

The target of experiment [2] is T1, 人CD27蛋白 (Cat: 10039-H03H, Sino …). Nature of the experiment: SPR (Reichert4), human CD27 protein on chip, antibody as analyte, curve 2.50e-8.
For experiment [3] the target is unchanged. Nature of the experiment: SPR (Reichert4), human CD27 protein on chip, antibody as analyte, curve 5.00e-8.
Experiment [4] shares this target. Kind of experiment: SPR (Reichert4), human CD27 protein on chip, antibody as analyte, curve 6.25e-9.
Experiment [5] deals with T2, 人CD27 (稳定表达人CD27的细胞系 HEK::CD27 细胞) (human, UniProt P26842 20-260).
T2 construct: whole, on cells; also called hCD27; 表达hCD27的细胞
T2 sequence (looked up): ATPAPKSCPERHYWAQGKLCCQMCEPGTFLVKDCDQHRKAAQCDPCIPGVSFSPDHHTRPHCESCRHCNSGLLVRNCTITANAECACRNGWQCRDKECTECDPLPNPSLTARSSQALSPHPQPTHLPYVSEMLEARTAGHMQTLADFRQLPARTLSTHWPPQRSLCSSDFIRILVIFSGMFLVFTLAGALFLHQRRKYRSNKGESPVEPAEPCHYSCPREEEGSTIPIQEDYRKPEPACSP
Nature of the experiment: flow cytometry on HEK::CD27 cells, 10 ng and 100 ng antibody. (Flow cytometry measures light scatter and fluorescence of single cells or particles in a stream.)

Experiment [6] deals with 人CD27 (稳定表达人CD27的细胞系 HEK::CD27 细胞) (human) (UniProt P26842). Nature of the experiment: flow cytometry on cells expressing human CD27.
Experiment [7] deals with T1, 人CD27蛋白 (Cat: 10039-H03H, Sino …). Nature of the experiment: SPR (Reichert4), human CD27 protein on chip, antibody as analyte, curve printed 625e-9.

B1: Varlilumab (antibody, V domains shown)
VH: QVQLVESGGGVVQPGRSLRLSCAASGFTFSSYDMHWVRQAPGKGLEWVAVIWYDGSNKYYADSVKGRFTISRDNSKNTLYLQMNSLRAEDTAVYYCARGSGNWGFFDYWGQGTLVTVSS
VL: DIQMTQSPSSLSASVGDRVTITCRASQGISRWLAWYQQKPEKAPKSLIYAASSLQSGVPSRFSGSGSGTDFTLTISSLQPEDFATYYCQQYNTYPRTFGQGTKVEIKR
B1: the Kd in experiment [1], in experiment [2], in experiment [3] and in experiment [4] was 0.00185 nM each time. Further, the koff in experiment [1], in experiment [2], in experiment [3] and in experiment [4] was 2.14e-07 s⁻¹ throughout. In addition, the kon in experiment [1], in experiment [2], in experiment [3] and in experiment [4] was 116000 M⁻¹ s⁻¹ in each case.

B2: Hu6D8-5 (antibody, human IgG4, V domains shown)
VH: EVQLVQSGAEVKKPGASVKVSCKASGYTFTNYGMNWVRQAPGQGLKWMGWINTNTGEPTYADDFKGRVTMTLDTSISTAYMELSRLRSDDTAVYYCAREGDGFDSWGQGTTVTVSS
VL: QIVLTQSPDFQSVTPKEKVTITCSATSSVNYMHWYQQKPDQSPKRWIYDTSRLASGVPSRFSGSGSGTDYTLTINSLEAEDAATYYCQQWNTNPWTFGGGTKVEIK
For B2, in experiment [5], the binding result is on record as “binds”.

B3: Hu6D8-3 (antibody, human IgG4, V domains shown)
VH: EVQLVQSGAEVKKPGASVKVSCKASGYTFTNYGMNWVRQAPGQGLKWMGWINTNTGEPTYADDFKGRVTMTLDTSISTAYMELSRLRSDDTAVYYCAREGDGFDSWGQGTTVTVSS
VL: QIVLTQSPDFQSVTPKEKVTITCSATSSVNYMHWYQQKPDQSPKRLIYDTSRLASGVPSRFSGSGSGTDYTLTINSLEAEDAATYYCQQWNTNPWTFGGGTKVEIK
Take B3: the binding result in experiment [5] is “binds”.

B4: Hu6D8-1 (antibody, human IgG4, V domains shown)
VH: EVQLVQSGAEVKKPGASVKVSCKASGYTFTNYGMNWVRQAPGQGLKWMGWINTNTGEPTYADDFKGRVTMTLDTSISTAYMELSRLRSDDTAVYYCAREGDGFDSWGQGTTVTVSS
VL: EIVLTQSPDFQSVTPKEKVTITCSATSSVNYMHWYQQKPDQSPKRLIYDTSRLASGVPSRFSGSGSGTDYTLTINSLEAEDAATYYCQQWNTNPWTFGGGTKVEIK
For the molecule B4, in experiment [5], the binding result is “binds”.

B5: Hu6D8-4 (antibody, human IgG4, V domains shown)
VH: EVQLVQSGAEVKKPGASVKVSCKASGYTFTNYGMNWVRQAPGQGLKWMGWINTNTGEPTYADDFKGRVTMTLDTSISTAYMELSRLRSDDTAVYYCAREGDGFDSWGQGTTVTVSS
VL: QFVLTQSPDFQSVTPKEKVTITCSATSSVNYMHWYQQKPDQSPKRLIYDTSRLASGVPSRFSGSGSGTDYTLTINSLEAEDAATYYCQQWNTNPWTFGGGTKVEIK
Consider B5, for which the binding result in experiment [5] was “binds”.

B6: Hu6D8-2 (antibody, human IgG4, V domains shown)
VH: EVQLVQSGAEVKKPGASVKVSCKASGYTFTNYGMNWVRQAPGQGLKWMGWINTNTGEPTYADDFKGRVTMTLDTSISTAYMELSRLRSDDTAVYYCAREGDGFDSWGQGTTVTVSS
VL: EIVLTQSPDFQSVTPKEKVTITCSATSSVNYMHWYQQKPDQSPKRWIYDTSRLASGVPSRFSGSGSGTDYTLTINSLEAEDAATYYCQQWNTNPWTFGGGTKVEIK
For B6, in experiment [5], the binding result is “binds”.

B7: Hu6D8-6 (antibody, human IgG4, V domains shown)
VH: EVQLVQSGAEVKKPGASVKVSCKASGYTFTNYGMNWVRQAPGQGLKWMGWINTNTGEPTYADDFKGRVTMTLDTSISTAYMELSRLRSDDTAVYYCAREGDGFDSWGQGTTVTVSS
VL: QFVLTQSPDFQSVTPKEKVTITCSATSSVNYMHWYQQKPDQSPKRWIYDTSRLASGVPSRFSGSGSGTDYTLTINSLEAEDAATYYCQQWNTNPWTFGGGTKVEIK
For B7, in experiment [5], the binding result was “binds”.

B8: Hu6D8-12 (antibody, human IgG4, V domains shown)
VH: EVQLVQSGAEVKKPGASVKVSCKASGYTFTNYGMNWVRQAPGQGLKWMGWINTNTGEPTYADDFKGRFTFTLDTSISTAYMELSRLRSDDTAVYYCAREGDGFDSWGQGTTVTVSS
VL: QFVLTQSPDFQSVTPKEKVTITCSATSSVNYMHWYQQKPDQSPKRWIYDTSRLASGVPSRFSGSGSGTDYTLTINSLEAEDAATYYCQQWNTNPWTFGGGTKVEIK
For B8, the binding result in experiment [5] is reported as “binds”.

B9: 鼠抗人CD27单克隆抗体6D8 (antibody, V domains shown)
VH: QIQLVQSGPELKKPGETVKISCKASGYTFTNYGMNWVKQAPGKGLKWMGWINTNTGEPTYADDFKGRFAFSLETSATTAYLQINNLKNEDTATYFCAREGDGFDSWGQGTTLTVSS
VL: QFVLTQSPAIMSASPGEKVTMTCSATSSVNYMHWYQQKSGTSPKRWIYDTSRLASGVPARFSGSGSGTSYSLTISSMEAEDAATYYCQQWNTNPWTFGGGTKLEIK
notes: it is not clear whether they are whole chains or variable regions only; also called 6D8抗体
For B9, the 结合率 in experiment [6] was > 85%. Further, the dissociation constant Kd in experiment [1], in experiment [2], in experiment [3] and in experiment [7] was 0.514 nM throughout. For the same molecule, the off-rate constant (koff) in experiment [1], in experiment [2], in experiment [3] and in experiment [7] was 9.69e-05 s⁻¹ each time. The on-rate (kon) in experiment [1], in experiment [2], in experiment [3] and in experiment [7] was 188000 M⁻¹ s⁻¹ each time.

B10: 6D8-G98A (人鼠嵌合抗体) (antibody, V domains shown)
VH: QIQLVQSGPELKKPGETVKISCKASGYTFTNYGMNWVKQAPGKGLKWMGWINTNTGEPTYADDFKGRFAFSLETSATTAYLQINNLKNEDTATYFCAREGDAFDSWGQGTTLTVSS
VL: QFVLTQSPAIMSASPGEKVTMTCSATSSVNYMHWYQQKSGTSPKRWIYDTSRLASGVPARFSGSGSGTSYSLTISSMEAEDAATYYCQQWNTNPWTFGGGTKLEIK
B10: in experiment [5], the binding result is listed as “binds”.

These data come from patent publication CN116262788A (TAIZE HUIKANG BIOMEDICAL CO LTD; BEIJING MIANYI FANGZHOU …, dated 2023).
